Experimental data as given in the DeepSol protein solubility set.

experiment: soluble on expression in E. coli; label from the status in PepcDB or PDB records

Sequence | soluble on expression in E. coli
MSLDGGTLGATNRFLTRDGSPWIPIAGEMHYSRIAAERWDTELAKMAAAGIDVVSTYVFWNHHEEREGEWDFSGNRNVRRFVELCARHGLHVIVRLGPFCHGEVRNGGLPDWLYGKSYEVRSLDAGFLDAVRGLYAHIAQQLRGLYFKDGGPIIAAQVDNEYMASSAPWEMTTGISREWVPSGHDGAGYLERLRDIAIEEGIDPPMFTCTGWQSPVPDDMLPLWGGYAYRPWLFYDGVGAEGMTEHPATDEYRYRRLHGSSTSDGFDPPYDPDSRPYACCEMGGGMFNSYDYRFVLPKRSVDAMANIKLGSGCDFLGYYMFHGGTNPKGAAGFLNEGQTPKRSYDFQAPLGKFGQVRESYRRLRTLHEFVKAFGPELAGMPVSLQDGQDRIDPSDSETLRYAVRSDGERGFVSIDNFQDHARVPSRHGEQIDVTTGTGERIRFTGIGLAEGENCILPFNMDLDGVRLVRANLQPVTVLRVPGRPFRTFVFLKPDGMDELTFHFEGDIQDVTVGKADFERFMVRDAAEIVCVTRALAGRMTVLDGGLAFVDDDNALLYEDGDGWTLESPRAENGIAAYPEGLLGSPRPVEPVSVYARMRRLHADRYEIALPAGMGRLFRDQRQVADVMLNIAYQGDIGWLFCGDVLIADNFCNGETWQVGLRDYADAIDAAGGKLTLVVTPLRRGVRVKVTSSMAARLEQSDACVADVTDVYATPVYHMPVGEGHHHHHH | not soluble
MGSDKIHHHHHHMNKNEIANLKMQGFILQNDGKHFALRIKTDAGCMDSEKIDKLSEISKKYGRNYISFTVRLCVEIPWINYEDIPKIKEELKNLSLISGGTGNTVRPLVACKGTVCTHGLIDSQKICNELDSLFFGKKLPHKFKIGISGCPNNCAKAQLNDIGIIGQRIPKINEENCNGCTLCLKSCSVDAITIVDKKAVIDYEKCVNCGKCGKSCKRKCISLKDGVLISVGGKFGKKYKIGENIGIYDAPNLEKIVSEIMDYFKENADSHERFGDTIDRTGISSLKEKLKDY | not soluble
MDFAFEKVARDWFVRWSKGRSEKYAGQVMRNFERWVFPAIGNLDIRQVRTADVVGCLRVMEARGIVDTLRKTKNSLKMVFAFAVGSGMMEINPVAQIGSGVFERLEHHHHHH | not soluble
MSLRAAARELSVGHTPTIGLVVADLANPFFAQLADRVVWEARSHGVQVMVMTTQEDPHLEADSLDTLLDRSVGGVIATPTGANIEKWARLQSLGVNVVFVDRTIPELEDVDLVSIENVDSARRATEHMLGLGHRRIGLITGPVSTSTGRSRIEGYKAAHNNFSISVDPQLIRDVAFRGDGGGDAVGSLLALPDRPTALIVANTAQVLSSVRRLVQIGVRIPDDLSVIVFDDNPWTELTNPPLSVIRQPIDMLAVHSLELVLGRMQGRLPAAPRTIEVKADFVPRSSCSPLALSEGHHHHHH | soluble
MEGVMGQVEKRPISTIVFIVAMQKEAQPLINRLRLVEEVNTPFPKEVTWIMFKGMYKDLNINIVCPGKDSTLGVESVGTVPASLVTYASILAIQPDLIINAGTAGGFKAKGACISDVYVVSTVAFHDRRIPVPVLDIYGVGMRNTFPTPNLIKELNLKVGRLSTGDSMDMSPHDEESITANDATVKDMEGAAVAYVADIFKVPTILIKGVTDIVDGNRPTSEEFLENLAAVTAKLDESLTKVIDFISGKCLSDL | soluble
DTRNEAEACLRYVKTKFARTMLGILKATQDNPKETWRLVPLQDFTAESDIDWTQPVAEIDRQLYRKYGLNESEIAFVEEKVRPMD | not soluble
MAHHHHHHMTSQTTTAVFSSDLQTFIVTKYDPLLSIVKELNDKLQNSEKDKYHLEKRIIKLEKQMVLLLEKLEVSDILFDNEEKEKKEEPRKNQKIESEENLLAPWLFSCQLGTPLSSLQVLLEFNVNNTIELNVKLWKREEDMWINVLEDISSNYNNYLPDSLSLLDLRKAARKCLLNICMNEILIVLRNVPGKSQALYNTTTMTLVAILASAIYEAWKRIELTDPVSLGRIVLVLDGMNCINKKREDVGSRLRAGNKKLKIEPLN | not soluble
